Molecular target: PP1c^1-293 (potato Protein Phosphatase 1-c isoform-3) (potato)
Assay: ITC

B1: Pi04314 WY-only (domain or fragment)
chain: DLLGLFAKSKLKKMMKSESFKLKRFGEWDDFTVGYIREKLKNKYPDLLLNYLNVYKKAGNEIVR
- Kd: 12.2 µM
